Data taken from publication PMC10397247.

Key:
Assay in all cases: two-hybrid library CCNG1;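 note: natural log of median RNA to DNA barcode read ratio; higher means stronger binding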
4H3185-bN = biological target: T1, 4H3185-bN
T1 chain: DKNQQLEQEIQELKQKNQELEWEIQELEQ

4H568-bN = biological target: T2, 4H568-bN
T2 chain: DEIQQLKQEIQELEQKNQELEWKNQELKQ

4H3782-bN = biological target: T3, 4H3782-bN
T3 chain: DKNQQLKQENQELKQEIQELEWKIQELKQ

4H754-bN = biological target: T4, 4H754-bN
T4 chain: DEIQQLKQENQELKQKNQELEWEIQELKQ

4H331-bN = biological target: T5, 4H331-bN
T5 chain: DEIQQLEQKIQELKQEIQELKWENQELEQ

4H687-bN = biological target: T6, 4H687-bN
T6 chain: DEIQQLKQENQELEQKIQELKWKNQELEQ

4H454-bN = biological target: T7, 4H454-bN
T7 chain: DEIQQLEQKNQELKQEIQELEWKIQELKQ

4H3855-bN = biological target: T8, 4H3855-bN
T8 chain: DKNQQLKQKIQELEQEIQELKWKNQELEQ

4H3112-bN = biological target: T9, 4H3112-bN
T9 chain: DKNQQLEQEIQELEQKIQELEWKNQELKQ

4H2931-bA = biological target: T10, 4H2931-bA
T10 chain: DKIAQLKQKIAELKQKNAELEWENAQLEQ

4H3427-bN = biological target: T11, 4H3427-bN
T11 chain: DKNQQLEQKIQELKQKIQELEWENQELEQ

4H2692-bA = biological target: T12, 4H2692-bA
T12 chain: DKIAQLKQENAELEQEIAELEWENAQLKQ

4H72-bN = biological target: T13, 4H72-bN
T13 chain: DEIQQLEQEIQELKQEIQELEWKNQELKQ

4H918-bN = biological target: T14, 4H918-bN
T14 chain: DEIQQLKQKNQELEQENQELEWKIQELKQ

4H338-bN = biological target: T15, 4H338-bN
T15 chain: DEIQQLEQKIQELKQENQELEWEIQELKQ

4H717-bN = biological target: T16, 4H717-bN
T16 chain: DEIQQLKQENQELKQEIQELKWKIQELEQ

4H607-bN = biological target: T17, 4H607-bN
T17 chain: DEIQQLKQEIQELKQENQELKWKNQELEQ

4H2667-bN = biological target: T18, 4H2667-bN
T18 chain: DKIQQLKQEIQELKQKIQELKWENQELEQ

4H2729-bN = biological target: T19, 4H2729-bN
T19 chain: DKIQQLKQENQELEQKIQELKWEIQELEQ

4H2576-bN = biological target: T20, 4H2576-bN
T20 chain: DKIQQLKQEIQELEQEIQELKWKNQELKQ

4H953-bN = biological target: T21, 4H953-bN
T21 chain: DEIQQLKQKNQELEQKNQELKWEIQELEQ

4H4001-bN = biological target: T22, 4H4001-bN
T22 chain: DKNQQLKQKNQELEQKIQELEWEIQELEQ

4H3354-bN = biological target: T23, 4H3354-bN
T23 chain: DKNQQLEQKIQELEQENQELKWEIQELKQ

4H2442-bN = biological target: T24, 4H2442-bN
T24 chain: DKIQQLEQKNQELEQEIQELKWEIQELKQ

4H908-bN = biological target: T25, 4H908-bN
T25 chain: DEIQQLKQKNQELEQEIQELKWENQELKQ

4H2618-bN = biological target: T26, 4H2618-bN
T26 chain: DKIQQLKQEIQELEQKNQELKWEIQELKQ

4H883-bN = biological target: T27, 4H883-bN
T27 chain: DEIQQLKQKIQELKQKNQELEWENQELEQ

4H797-bN = biological target: T28, 4H797-bN
T28 chain: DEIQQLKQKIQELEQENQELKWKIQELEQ

4H967-bN = biological target: T29, 4H967-bN
T29 chain: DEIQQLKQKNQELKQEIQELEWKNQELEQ

4H3974-bA = biological target: T30, 4H3974-bA
T30 chain: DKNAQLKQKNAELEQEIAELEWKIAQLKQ

4H850-bA = biological target: T31, 4H850-bA
T31 chain: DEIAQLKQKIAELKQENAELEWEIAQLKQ

4H3631-bA = biological target: T32, 4H3631-bA
T32 chain: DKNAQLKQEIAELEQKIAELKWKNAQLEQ

4H1710-bA = biological target: T33, 4H1710-bA
T33 chain: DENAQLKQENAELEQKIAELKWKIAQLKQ

4H619-bA = biological target: T34, 4H619-bA
T34 chain: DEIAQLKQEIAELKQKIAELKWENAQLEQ

4H3638-bA = biological target: T35, 4H3638-bA
T35 chain: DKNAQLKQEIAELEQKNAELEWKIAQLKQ

4H1629-bA = biological target: T36, 4H1629-bA
T36 chain: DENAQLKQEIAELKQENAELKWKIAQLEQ

4H3172-bA = biological target: T37, 4H3172-bA
T37 chain: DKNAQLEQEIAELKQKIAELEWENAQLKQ

4H570-bA = biological target: T38, 4H570-bA
T38 chain: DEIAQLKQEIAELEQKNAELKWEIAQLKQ

4H3129-bA = biological target: T39, 4H3129-bA
T39 chain: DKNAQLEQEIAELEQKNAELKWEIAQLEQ

4H3414-bA = biological target: T40, 4H3414-bA
T40 chain: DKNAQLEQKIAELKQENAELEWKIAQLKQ

4H1985-bA = biological target: T41, 4H1985-bA
T41 chain: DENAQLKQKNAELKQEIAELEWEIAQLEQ

4H584-bA = biological target: T42, 4H584-bA
T42 chain: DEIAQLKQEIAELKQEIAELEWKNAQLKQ

4H3817-bA = biological target: T43, 4H3817-bA
T43 chain: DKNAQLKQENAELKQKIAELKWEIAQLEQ

4H906-bA = biological target: T44, 4H906-bA
T44 chain: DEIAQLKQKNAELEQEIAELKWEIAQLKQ

4H1804-bA = biological target: T45, 4H1804-bA
T45 chain: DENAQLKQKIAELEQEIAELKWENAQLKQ

An interaction score (4H3185-bN) of -1.14, an interaction score (4H568-bN) of -0.89 and an interaction score (4H3782-bN) of 0.148 were found for DKIQQLEQKNQELEQEIQELKWEIQELKQ [4H2442-bN] in this work. It also gave an interaction score (4H754-bN) of -0.65, an interaction score (4H331-bN) of 0.796 and an interaction score (4H687-bN) of -0.717. For the same binder, the interaction score (4H454-bN) was 0.883, the interaction score (4H3855-bN) was -0.731 and the interaction score (4H3112-bN) was -0.821. For the same binder, the interaction score (4H2931-bA) was 0.256, the interaction score (4H3427-bN) was -0.236 and the interaction score (4H2692-bA) was -0.104. The interaction score (4H72-bN) was -0.588, the interaction score (4H918-bN) was -0.127 and the interaction score (4H338-bN) was -0.476. It also gave an interaction score (4H717-bN) of -1.28, an interaction score (4H607-bN) of -1.3 and an interaction score (4H2667-bN) of 0.241. For the same binder, the interaction score (4H2729-bN) was 0.367, the interaction score (4H2576-bN) was -0.32 and the interaction score (4H953-bN) was -0.933. The interaction score (4H4001-bN) was 0.0198, the interaction score (4H3354-bN) was -0.568 and the interaction score (4H2442-bN) was -0.216. For the same binder, the interaction score (4H908-bN) was -0.788, the interaction score (4H2618-bN) was 0.706 and the interaction score (4H883-bN) was -0.738. The interaction score (4H797-bN) was -0.491 and the interaction score (4H967-bN) was -0.892.

An interaction score (4H3974-bA) of -0.124, an interaction score (4H850-bA) of -1.14 and an interaction score (4H3631-bA) of -0.216 were found for DENAQLKQEIAELKQENAELKWKIAQLEQ [4H1629-bA] in this work. It also gave an interaction score (4H1710-bA) of -0.992, an interaction score (4H619-bA) of -0.0748 and an interaction score (4H3638-bA) of -0.477. The interaction score (4H1629-bA) was 0.605, the interaction score (4H3172-bA) was -0.887 and the interaction score (4H570-bA) was -0.594. It also gave an interaction score (4H3129-bA) of 0.102, an interaction score (4H3414-bA) of 0.702 and an interaction score (4H1985-bA) of -0.329. The interaction score (4H584-bA) was -1.4, the interaction score (4H2667-bN) was -1.22 and the interaction score (4H3817-bA) was -0.529. It also gave an interaction score (4H906-bA) of -0.968 and an interaction score (4H1804-bA) of -1.39.
